In the DeepSol protein solubility set:

Assay: soluble on expression in E. coli; label from the status in PepcDB or PDB records

Row | Sequence | soluble on expression in E. coli
1 | MGSDKIHHHHHHMSAELPLVFSVTSGKGGVGKTNMSVNIACCLSRMGKRVVLLDADLGLANVDVVLGLAPPRNLFHLFHEGADLGSILCEMPYGFRILPASSGVGEMLSLSTGQKLDLLEAMDVLEDSVDYLLVDTGAGINDNVLYFNIAAQERIVVLTPEPTSLTDAYALIKVMKLNHGVEHFKVLVNMAGDMKAAREVFSRLYKACDHFLSGVSLDLLGYVPRDRTVRRAVVEQTPFCVLDSRSPASLAVQKVAETVQTWDVSASLDGNIKFFWKKLLFR | not soluble
2 | MKKVYFNHDGGVDDLVSLFLLLQMDNVELTGVSVIPADCYLEPAMSASRKIIDRFGKNTIEVAASNSRGKNPFPKDWRMHAFYVDALPILNESGKVVTHVAAKPAHHHLIETLLQTEEKTTLLFTGPLTDLARALYEAPIIENKIKRLVWMGGTFRTAGNVHEPEHDGTAEWNSFWDPEAVARVWEANIEIDLITLESTNQVPLTIDIREQWAKERKYIGIDFLGQCYAIVPPLVHFAKNSTYYLWDVLTAAFVGKADLAKVQTINSIVHTYGPSQGRTVETDDGRPVHVVYDVNHDRFFDYITRLAKKVST | soluble
3 | MGSDKIHHHHHHMKIGVFSVLFYDKNFEDMLDYVAESGLDMIEVGTGGNPGDKFCKLDELLENEDKRQAFMKSITDRGLQISGFSCHNNPISPDPIEAKEADETLRKTIRLANLLDVPVVNTFSGIAGSDDTAKKPNWPVTPWPTAYSEIYDYQWNEKLIPYWQDLAEFAKEQDVKIAIELHAGFLVHTPYTMLKLREATNEYIGANLDPSHLWWQGIDPIAAIRILGQANAIHHFHAKDTYINQENVNMYGLTDMQPYGNVATRAWTFRTVGYGHSPYVWADIISQLIINGYDYVLSIEHEDPIMSVEEGFQKACQTLKSVNIYDKPADMWWA | not soluble
4 | MMSISQLLGCISKQVDGQYIAQYEELTLRSVFQPIYKKDLSIIGLEALVRISTADGSMIRPDLFFQSPSISEHVQLNVERLSRLIHIKNFGQSRYRNKKLFLNVLPRAAEMLAKDLSYSHLLKQVICEADLCREQIVMELVELSAGDESFLYKATKELSDGGFKLAIDDYGINASTIERVKCVRPDIIKMDRSLLLKYEDGDFSALIEALALAKELSSKTVIEGIETEHQLNLMKKLGFDMYQGYLLAMPQTLEMYEEAKTA | not soluble
5 | MGSDKIHHHHHHMKRRPTINDVAKLAGVSISTVSRYLKDPSQVSEKLGERIREAIKKLGYKPNKIAQGLRTGDSKMIGFIVPDITNPAFLTIVKGAEDFLRKKGYSFIIGGTDHKSKDEVVILESFIFHNVDGVIVTCTGYENKALKELIERYHLKLVFVDRRYPGIDAPYIGVDNFGGVARMVDYLVETGHRSFAYLCGDMTSTAKERLEGFLDRMKKYKIKDYQVLYGEFTFESGYKLTKRLSKIPDAIIAGNDLMAFGVIEALKERGLVVPEDVSVTGFDDMFFSKYYKPSLTTVRQDLYEMGKQAGKVLFALISGKKIRKKEYILPTEIVIRDSVKERRA | not soluble
6 | MGSDKIHHHHHHMAQRVGPTRRGVDGTPVEPLSIKHPNAAGIDIGGASHYVAVPPDRVGKGEPAVREFGPHTEDLVAVANWLCACRIDTVALESTGVYWIALYELLQARGFEVWLVDAKSVRHVKARKSDVLDCQWLQQLHSFGLLSQAHRPDEQVCALREMSRLRDITIDERARHTQRMQKALTQMNVQLTNVITDITGETGMNIIRAIVAGGATAWPSRS | not soluble
7 | LVRSGRNITMQIIGYMTSHRKQHLEATDVAREFGYGREHFCRLFRKATGKTFKEFLTDLRLDDACRKLSGSSASIASIARECGFPDTRALQTAVQRKYGIRAQEYRERYENR | soluble
8 | MSLKRVIGYIRVSTDNQDLERQRVLIRKYCENKGYSLLRIEEDYAISGTVSNRNGLNSILNITNSVADMVVVSELSRLSRQDDIFETLTQIHTIIRNVDLVILDEPDKVYEAGKTIILSDFLMLAIKAYGAADERKKIVSRMTTGKDSKVQAFPLMLTDSNIPTGFKAVPNPNYIKGATPKMLLVEDEERMQLVRDIFNYVANGLSLGKTAEKLNMLGYRTARNKPFYEQSIRTIINDSIYNGVRYWKGMKLELPVKFISDEIWNLAHKKVQENKNYSGEGHHHHHH | soluble
9 | MPGRKRKLAAKTAELAPEAGEGSESTSLVGSADASASTAAGVAHTEQQEMPSGGLHESFLESIPPAASFLEELAWVESLASPSYVAYLCQMRRFDDVVAQRRLTTLQRWRQDPAYRQHVSQPIALFFLEQLCSAEFREALRHPAVAALYERQVDLYRRCYGNLLNTGESRVLR | not soluble
10 | GMQATTATPHDIVFLFDCDNTLLDNDHVLADLRAHMMREFGAQNSARYWEIFETLRTELGYADYLGALQRYRLEQPRDTRLLLMSSFLIDYPFASRVYPGALNALRHLGARGPTVILSDGDVVFQPRKIARSGLWDEVEGRVLIYIHKELMLDQVMECYPARHYVMVDDKLRILAAMKKAWGARLTTVFPRQGHYAFDPKEISSHPPADVTVERIGDLVEMDAEWLLAEKR | soluble
11 | MAHHHHHHSLVDVRQSIHSEHAKTLDTQALRREFLIENIFVADEYTMVYSHIDRIIVGGIMPVSHPVEIGGEVGKQLGVSRLLDRRELGVINIGGAGAIIVDGQRHDIGHRDALYIGKGAKELVFVSNEASRPAKFYYNCAPAHTAYPTKKVSPADVAPVTLGDNLTSNRRTINKYFVPDVLETCQLSMGLTELAPGNLWNTMPCHTHERRMEVYLYFNMEEDSCVFHMMGQPQETRHIVMRNEQAVISPSWSIHSGVGTKAYTFIWGMVGENQVFDDMDHVAVQDLREG | soluble
12 | MAQDWNDKIESAQKMLPLIAQLHNNNNVVVSVFGRLLINVTDIDIVKAHRYSRLATETELSPADTLPVLEALHSINVGPASIDLGRLVELHRSKGGDLTQFLTEELSNVIDTRPA | not soluble
13 | MSLKKILLLLANGFEAVEASVFTDVLGWNMLEGDGSTLVVTAGMHDKIKCTWNFTVLPEIKIKNVNVDDFEALVIPGGFEEAGFFIDAYSNSFLDLIRTFNAKGKIIASVCVGALSIGKSGILKGRTATTYNLNDRKRQYELSKFGVKILENQPIVIDKNVITSYNPSTAFNVAFTLLEMLTSTENCTKVKKLMGFIEGHHHHHH | soluble
14 | MTAPTLAPIDPPARAQLLADLQGAPDWDVIVIGGGATGLGTAVDAAARGYRTLLVEAADFAKGTSSKATKLVHGGVRYLAQGNISLVREALHERGLLNRNAPHLVWPLGFVVPAYSLLDQPFYGVGLKMYDMLAGKLNLAPSRWLSRGETLRHAATVAERVNGRALRGGILYYDGQFDDARLAIALMRTLYDLGGVALNYARAVGLTRTDGRVDGVTVADALGELRVTLRAKCVVNATGVWVDAVRRMDDPAAQTMVAPSQGVHLTLPRDFLPGEDAILIPKTDDGRVLFVVPWNGHTIVGTTDTPRTDLPLDPQAGQNEIDFILATAARYLSRKPTRADVTSVWAGLRPLVKATGEASTKSLSREHTIVVSKGGLVTVTGGKWTTYRKMAQDVVDTAIQHKLLAAAPCRTSELPLHGAPTDGQPSGAPHGTPDSYYGTDLATLRALPGADRMLVKASALTEAHVRYAARHELARTVEDVLARRNRALFLDAEAALLAAPEVARILAQELGHDEAWSRATLAEFEAVAAHYRLALEHHHHHH | soluble
15 | GMSGDILNDIVAACLELERKASSVFKMFAAHAGSDEARRFWETVADETRHHSAVYERLQERGGRENLPIIIYKPAETLEELEMIGKSIDEQVERYTEAPSSEAACLLGFRLQLYLLHPAFASLCRLTRDASGEDLPDIGYGRYLRRFIDGIGSCGLATAETELLGEALFRLWNEARQLAAQSHFDALTGVMTRAGFFKTVGSLAYAAQRSGSNVGIMLIDLDYFKLVGDNYGHQTGDRILQLVAETITSHLRRSDVVGRYDGDEFVVYLSPVEPASLRTVAENLRRSIEEESARMVPVTASIGVAQGILGTDVDGGIEELVRLADECLMQAKYTGKNKVVVK | soluble
16 | MAHHHHHHMRVIIQRVKNAALSVIKEESKETEKQLELFSEIKNGIICFVGIHKNDTWKDAMYIIRKCLNLRLWSDGNKSWDKSVKDLNYEILFVSQFTLFANTKKGNKPDFHLAKEPKEALAMYNKMVEQFAKDYNHEKIKTGKFGCYMNIQVTNDGPVTIFIDSHDVNLDN | not soluble
